Source: patent US20240182563A1 (GENOME, published 2024)
Where a chain is given by its changes, count along the chain named. Numbers in names are those of the source. Blank lines part the entries; values can stand above or below the binder they belong to.

Tests used:
[1] = target: T1, mouse CNTN4-rabbit Fc (mouse; rabbit, UniProt Q69Z26 19-1000, limits assumed); assay: ELISA, plate coated with antigen-rabbit Fc, anti-human kappa-HRP
T1 construct: not shown: rabbit Fc
T1 sequence (looked up): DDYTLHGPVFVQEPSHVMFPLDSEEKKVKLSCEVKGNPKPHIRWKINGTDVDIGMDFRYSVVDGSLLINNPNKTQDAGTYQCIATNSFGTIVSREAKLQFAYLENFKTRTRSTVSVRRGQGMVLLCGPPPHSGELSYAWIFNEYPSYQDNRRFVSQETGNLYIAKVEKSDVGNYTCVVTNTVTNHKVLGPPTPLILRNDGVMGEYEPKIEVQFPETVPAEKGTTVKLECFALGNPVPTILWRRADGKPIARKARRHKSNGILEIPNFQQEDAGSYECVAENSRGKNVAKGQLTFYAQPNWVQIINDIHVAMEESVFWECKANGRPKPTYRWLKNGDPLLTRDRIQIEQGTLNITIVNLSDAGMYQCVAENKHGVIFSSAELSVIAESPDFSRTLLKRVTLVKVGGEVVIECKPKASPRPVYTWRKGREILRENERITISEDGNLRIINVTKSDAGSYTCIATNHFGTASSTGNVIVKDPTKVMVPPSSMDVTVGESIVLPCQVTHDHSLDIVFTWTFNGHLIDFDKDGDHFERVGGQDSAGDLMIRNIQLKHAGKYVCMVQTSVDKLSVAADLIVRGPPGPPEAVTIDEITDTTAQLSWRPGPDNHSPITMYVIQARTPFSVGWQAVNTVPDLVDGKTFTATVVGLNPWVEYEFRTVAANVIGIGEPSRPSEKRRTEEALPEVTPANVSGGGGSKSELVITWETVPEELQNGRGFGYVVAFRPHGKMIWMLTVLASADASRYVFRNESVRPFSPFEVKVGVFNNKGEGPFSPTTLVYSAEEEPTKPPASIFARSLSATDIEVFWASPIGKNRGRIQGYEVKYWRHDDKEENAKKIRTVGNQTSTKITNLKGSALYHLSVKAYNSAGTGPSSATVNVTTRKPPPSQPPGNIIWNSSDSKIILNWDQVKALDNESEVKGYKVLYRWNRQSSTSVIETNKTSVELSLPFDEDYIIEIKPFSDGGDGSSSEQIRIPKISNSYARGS

[2] = target: T2, human CNTN4-rabbit Fc (human; rabbit, UniProt Q8IWV2 19-1000, limits assumed); assay: as above
T2 construct: not shown: rabbit Fc
T2 sequence (looked up): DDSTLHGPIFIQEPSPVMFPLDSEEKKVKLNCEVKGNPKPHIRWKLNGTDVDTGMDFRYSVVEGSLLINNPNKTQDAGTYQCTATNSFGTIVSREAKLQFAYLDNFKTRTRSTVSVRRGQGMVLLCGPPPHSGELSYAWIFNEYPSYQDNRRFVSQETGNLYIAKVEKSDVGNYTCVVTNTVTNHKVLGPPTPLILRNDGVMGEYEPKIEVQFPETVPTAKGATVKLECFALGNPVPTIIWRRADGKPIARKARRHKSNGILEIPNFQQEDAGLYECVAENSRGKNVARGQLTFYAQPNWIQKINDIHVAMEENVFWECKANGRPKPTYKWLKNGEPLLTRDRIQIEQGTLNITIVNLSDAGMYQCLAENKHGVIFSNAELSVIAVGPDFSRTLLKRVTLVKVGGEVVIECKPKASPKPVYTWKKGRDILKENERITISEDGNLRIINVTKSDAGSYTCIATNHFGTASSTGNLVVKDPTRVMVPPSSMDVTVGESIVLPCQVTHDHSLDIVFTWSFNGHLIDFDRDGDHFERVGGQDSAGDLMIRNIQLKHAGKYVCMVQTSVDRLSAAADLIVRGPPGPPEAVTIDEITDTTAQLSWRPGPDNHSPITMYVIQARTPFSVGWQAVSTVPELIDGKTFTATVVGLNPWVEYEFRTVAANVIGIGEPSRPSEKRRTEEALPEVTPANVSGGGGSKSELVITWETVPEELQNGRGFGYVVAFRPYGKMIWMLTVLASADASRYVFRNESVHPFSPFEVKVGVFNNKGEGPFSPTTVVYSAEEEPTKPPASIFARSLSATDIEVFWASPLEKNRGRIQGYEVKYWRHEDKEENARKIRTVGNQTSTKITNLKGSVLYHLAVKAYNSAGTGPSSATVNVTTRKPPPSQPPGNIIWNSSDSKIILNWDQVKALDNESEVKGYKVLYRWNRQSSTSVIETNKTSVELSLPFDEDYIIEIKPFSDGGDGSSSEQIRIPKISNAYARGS

[3] = target: T3, human CNTN4 antigen expressed on the cell membrane of 293FT cells (human) (UniProt Q8IWV2); assay: FACS, 293FT cells transfected with human CNTN4, 40 ug/mL, anti-hCk-PE
T3 sequence (looked up): T2 sequence (looked up)

[4] = target: T4, human CNTN4 antigen expressed on the cell membrane of 293FT cells (human, UniProt Q8IWV2 19-1000); assay: FACS, 293FT cells transfected with human CNTN4, 40 ug/mL, anti-hFc-PE
T4 construct: whole, on cells; also called Human CNTN4 transfected cell
T4 sequence (looked up): T2 sequence (looked up)

[5] = target: T1, mouse CNTN4-rabbit Fc; assay: ELISA, plate coated with antigen-rabbit Fc, anti-human IgG Fc-HRP
Method: (§1) An ELISA tests were performed on a total of 25 scFv-hCks and a total of 27 IgGs for which the expression was confirmed in Example 1.2. An ELISA plate was coated with 200 ng of antigens (human CNTN4-rabbit Fc or mouse CNTN4-rabbit Fc). 200 ng of a negative control (human antigen-rabbit Fc) for a tagging protein was used. For antibody binding, anti-CNTN4 scFv-hCk was serially diluted from a maximum of 1 μM to 0.001 nM by 1/10×each, and anti-CNTN4 IgG was serially diluted from a maximum of 10 nM to 0.00001 nM by 1/10×each, thereby binding to the antigen. Anti-human kappa-HRP or anti-human IgG Fc-HRP was used as the secondary antibody for antibody detection. Color was developed using ABTS, which is a color developing reagent, and the absorbance at 405 nm was measured.

[6] = target: T2, human CNTN4-rabbit Fc; assay: as above
Method: as §1

- EC50 [1]: 1.85 nM
- EC50 [2]: 0.37 nM
- Shift % [3]: 14.7%
B1: anti-CNTN4 scFv-hCk S6 (scFv, part only; not given: linker and kappa constant region, not shown: a dimerising Fc or GST)
scFv, part: ALTQPSSVSANPGETVKITCSGGSGNYGWYQQKSPGSAPVTVIYNGNNRPSDIPSRFSGSGSGSTNTLAITGVQAEDEAVYFCGGYDGTIDAFGAGTTLTVLAVTLDESEGGLQTPGGALSLVCKASGFTFSSFNMFWVRQAPGKGLEYVAEISGGGGSTWYAPAVKGRATISRDNGQSTVRLQLNNLRAEDTGTYYCAKSADTWSYGAATIDAWGHGTEVIVSS

- EC50 [1]: 1.15 nM
- EC50 [2]: 2.6 nM
- Shift % [3]: 15.4%
B2: anti-CNTN4 scFv-hCk S4 (scFv, part only; not given: linker and kappa constant region, not shown: a dimerising Fc or GST)
scFv, part: ALTQPSSVSANPGESVKITCSGGGSSYYGWYQQKSPGSAPVTLIYQNTNRPSNIPSRFSGSGSGSTGTLTITGVRAEDEAVYYCGGYDGSTDVFGAGTTLTVLAVTLDESEGGLQTPGGALSLVCKASGFTFSSFNMFWVRQAPGKGLEYVAEISGGGGSTWYASAVKGRATISRDNGQSTVRLQLNNLRAEDTGTYYCAKSADTWSYGAATIDAWGHGTEVIVSS

- EC50 [1]: 0.56 nM
- EC50 [2]: 0.74 nM
- Shift % [3]: 16.6%
B3: anti-CNTN4 scFv-hCk S131 (scFv, part only; not given: linker and kappa constant region, not shown: a dimerising Fc or GST)
scFv, part: B2 scFv, part with P12L, E14G, S15T, S165P

- EC50 [1]: 2.07 nM
- EC50 [2]: 1.12 nM
- Shift % [3]: 5.63%
B4: anti-CNTN4 scFv-hCk S24 (scFv, part only; not given: linker and kappa constant region, not shown: a dimerising Fc or GST)
scFv, part: ALTQPSSVSANPGETVEITCSGGSGSYGWYQQKAPGSAPVTVIYDNTNRPSNIPSRFSGSGSDSTGTLTITGVQADDEAVYYCGSYDSIEVIFGAGTTLTVLAVTLDESGGGLHTPGGALSLVCKASGFTFSSYGMAWVRQAPGKGLEWVAGITSSGSSAGYGPAVKGRATISRDNGQSTVRLQLNNLRAEDTATYYCAKDGYIYSGGDSDSIDAWGHGTEVIVSS

- EC50 [1]: 1.2 nM
- EC50 [2]: 1.22 nM
- Shift % [3]: 8.19%
B5: anti-CNTN4 scFv-hCk S46 (scFv, part only; not given: linker and kappa constant region, not shown: a dimerising Fc or GST)
scFv, part: B4 scFv, part with E78K, G208A

- EC50 [1]: 1.53 nM
- EC50 [2]: 4.44 nM
- Shift % [3]: 13.8%
B6: anti-CNTN4 scFv-hCk S1 (scFv, part only; not given: linker and kappa constant region, not shown: a dimerising Fc or GST)
scFv, part: ALTQPSSVSANPGETVKITCSGGSSYGWYQQKSPGSAPVTVIYDNTNRPSNIPSRFSGSKSGSTNTLTITGVRAEDEAVYFCGGYDSSIDAFGAGTTLTVLAVTLDESEGGLQTPGGALSLVCKASGFTFSSFNMFWVRQAPGKGLEYVAEISGGGGSTWYAPAVKGRATISRDNGQSTVRLQLNNLRAEDTGTYYCAKSADTWSYGAATIDAWGHGTEVIVSS

- Shift % [3]: 5.27%
B7: anti-CNTN4 scFv-hCk S83 (scFv, part only; not given: linker and kappa constant region, not shown: a dimerising Fc or GST)
scFv, part: ALTQPSSVSANLGETVKITCSGGGGYSGSYYYGWYQQKSPAGAPDTVIYSNNQRPSNIPSRFSGSKSGSTGTLTITEDHAEDEAVYYCGSIDSSSNPGIFGAGTTLTVLAVTLDKSGGGLHTPGGALSLVCKASGFTFSRYIMQWVLQAPGKVLEWVASIRNGTTPKYGAAVKGRATISRDNGQSTVMLQLNSLTYDDTDAYYCDRGDDGDCICGGCAASIDIWCYATEVIVSS

- Shift % [3]: 1.69%
B8: anti-CNTN4 scFv-hCk S96 (scFv, part only; not given: linker and kappa constant region, V domains shown, not shown: another chain or arm of the molecule; a dimerising Fc or GST; small tags and cut ends)
VL: ALTQPSSVSANPGETVKITCSGSSGSYGYSWHQQKSPGSAPVTVIYESNKRPSNIPSRFSGSTSGSTSTLTITGVQADDEAVYFCGSADSSTTIAFGAGTTLTVL
VH: AVTLDESGGGLQTPGGTLSLVCKASGFTFSTYSMQWLRQAPGKGLEWVAGISNSGSSTVYGPAVKGRATISRDNGQSTVSLQLNNLRAEDTGTYYCAKSTYGGSWYAAYSIDEWGHGTEVIVSS

- EC50 [1]: 0.37 nM
- EC50 [2]: 0.55 nM
- Shift % [3]: 16%
B9: anti-CNTN4 scFv-hCk S129 (scFv, part only; not given: linker and kappa constant region, not shown: a dimerising Fc or GST)
scFv, part: ALTQPSSVSANLGETVKITCSGSSGSYGWYQQKSPGSAPVTLIYDNTNRPSDIPSRFSGSGSGSTGTLTITGVRAEDEAVYYCGGYDGSTDVFGAGTTLTVLAVTLDESEGGLQTPGGALSLVCKASGFTFSSFNMFWVRQAPGKGLEYVAEISGGGGSTWYAPAVKGRATISRDNGQSTVRLQLNNLRAEDTGTYYCAKSADTWSYGAATIDAWGHGTEVIVSS

- Shift % [4]: 80%
- EC50 [5]: 0.01 nM
- EC50 [6]: 0.01 nM
B10: anti-CNTN4 IgG A35SF39 (antibody, V domains shown)
VH: AVTLDESGGGLHTPGGALSLVCKASGFTFSSYGMAWVRQAPGKGLEWVAGITSSGSSAGYGPAVKGRATISRDNGQSTVRLQLNNLRAEDTATYYCAKDGYIYSGADSDSIDAWGHGTEVIVSS
VL: ALTQPSSVSANLGGTVKITCSGGSGSYGWYQQKSPGSAPVTVIYNNNNRPSDIPSRFSGSTSGSTGTLTITGVRAEDEAVYFCGGYDTDSPIFGAGTTLTVL
notes: human IgG4 (S228P)

- Shift % [4]: 84.8%
- EC50 [5]: 0.2 nM
- EC50 [6]: 0.21 nM
B11: anti-CNTN4 IgG A35SF75 (antibody, V domains shown)
VH: B10 VH
VL: ALTQPSSVSANPGVTVKITCSGGGGSYGWYQQKAPGSAPVTLIYNNTNRPSDIPSRFSGSRSGSTNTLTITGVQAEDEAVYFCGGYDSNTDYVGFGAGTTLTVL
notes: human IgG4 (S228P)

- Shift % [4]: 82.8%
- EC50 [5]: 0.01 nM
- EC50 [6]: 0.01 nM
B12: anti-CNTN4 IgG A35SF90 (antibody, V domains shown)
VH: B10 VH
VL: ALTQPSSVSANLGGTVEITCSGSNNNNYGWYQQKTPGSAPVTLIYNNNQRPSDIPSRFSGSKSGSTGTLTITGVRAEDEAVYYCGGYDSSIYFDIFGAGTTLTVL
notes: human IgG4 (S228P)

- EC50 [1]: 3.64 nM
- EC50 [2]: 8.34 nM
- Shift % [3]: 20.5%
B13: anti-CNTN4 scFv-hCk S99 (scFv, part only; not given: linker and kappa constant region, V domains shown, not shown: another chain or arm of the molecule; a dimerising Fc or GST; small tags and cut ends)
VL: ALTQPSSVSANPGETVKITCSGGASYAGNYYYGWYQQKSPGSAPVTVIYNNNQRPSDIPSRFSGSLSGSTNTLTITGVQADDEAVYFCGSDDSSAGYTGIFGAGTTLTVL
VH: AVTLDESGGGLQTPGGALSLVCKASEFTFSGYGMHWVRQAPGKGLEFVAEISNTGSWTGYGAAVKGRATISRDNGQSTVRLQLNNLKADDTATYYCAKVGGRGWCGRSGCADDIDAWGHGTEVIVSS
